Target: T1, Banf1 WT (Homo sapiens, UniProt O75531 1-89)
T1 sequence: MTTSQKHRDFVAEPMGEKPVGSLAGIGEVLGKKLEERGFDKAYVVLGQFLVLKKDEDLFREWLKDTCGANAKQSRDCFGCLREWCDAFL
Test: EMSA; EC50; 10 mM KH2PO4, 100 mM NaCl, 0.01% IGEPAL, 5 nM Cy5 DNA, 30 min at 37 C; pH not stated; 8% gel in 1x TBE at 4 C
Details: protein: recombinant; tags: N-terminal His6 (pET-28a NdeI-XhoI); chain copies: 2; label: 5' Cy5 on forward strand; blunt

B1: Cy5 40 bp dsDNA (dsDNA)
DNA 1: AGGAGCGCCAGACCCACCAAGAGCCCTCTATCGGTTGGGA
DNA 2: TCCCAACCGATAGAGGGCTCTTGGTGGGTCTGGCGCTCCT
With B1 the “apparent K (half saturation)” value was 15.1 ± 1.96 nM.

Reference: article PMC8606531, “The Impact of Rare Human Variants on Barrier-To-Auto-Integration Factor 1 (Banf1) Structure and Function”
